According to paper PMC7822688, “W196 and the β-Hairpin Motif Modulate the Redox Switch of Conformation and the Biomolecular Interaction Network of the Apoptosis-Inducing Factor” (Oxidative Medicine and Cellular Longevity, 2021):
Several values for one entry are separate records, joined by “and”; a condition that tells them apart may be missing. Equal values may be shown once. Entries after “also recorded” stand apart in the source; their conditions may differ. Read-outs that look alike come from different tables or passages of the source.

Experiments:
[1] = Steady-state DCPIP-dependent diaphorase (NADH oxidase) activity; assay type: biochemical; settings: for K m ^NADH / k cat: steady-state, NADH donor, 95 μM DCPIP acceptor, 25°C, 50 mM potassium phosphate, pH 7.4 (table footnote); for k cat: n = 3, mean ± SD
From the text: […] When saturation profiles on the pyridine nucleotide concentration were observed, kinetic constants were estimated by fitting initial reaction rates at different coenzyme concentrations to the Michaelis-Menten equation: (2) ν/e=kcat NADH/KmNADH+NADH,ν/e=kcat/KmNADHNADH/1+kcat/KmNADHNADH/kcat, where v stands for the initial velocity, e is the enzyme concentration, Km^NADH is the Michaelis constant for the enzyme-NADH complex, kcat is the turnover number of the enzyme, and kcat/Km^NADH is the enzyme catalytic efficiency.

[2] = Stopped-flow reduction of hAIF∆1-101ox by NADH (hydride transfer); assay type: biochemical; settings: for k HT/Kd^NADH / k HT / Kd: pre-steady-state, 25°C, pH 7.4; for k HT: hydride transfer from NADH to FAD, aerobic, 50 mM potassium phosphate; for Kd: transient hAIF∆1-101ox:NADH complex, read-out: K d ^NADH
Description: A SX18.MV stopped-flow spectrophotometer (Applied Photophysics Ltd., Surrey, UK), interfaced with the ProData-SX software and a photodiode array detector, was used to investigate the fast kinetic reduction of the hAIF variants by the NADH coenzyme. Samples of ~10 μM hAIF∆1-101ox were mixed with increasing concentrations of NADH (0.03-10 mM) under aerobic conditions in 50 mM potassium phosphate, pH 7.4, at 25 °C. The enzyme and NADH concentrations are the final ones obtained after mixing equal volumes of substrate and enzyme. Observed rate constants for the hydride transfer (HT) event (kobs) were calculated by global analysis and numerical integration methods (simultaneously using all spectral data in the 400-800 nm region along time evolution). A single-step model (A→B) best fitted to describe the overall reaction at all NADH concentrations assayed. Averaged kobs values at each NADH concentration were then fitted to the equation that describes the formation of an enzyme:substrate complex prior to the HT event: (3) kobs=kHTNADH/KdNADH+NADH+krev, where kHT is the limiting rate constant for HT from the pyridine nucleotide coenzyme to the FAD cofactor of hAIF, Kd^NADH is the dissociation constant of the transient hAIF∆1-101ox:NADH complex, and krev is the reaction constant for a potential overall reverse process.

[3] = biological target: T1, CHCHD4 (Homo sapiens, UniProt Q8N4Q1); experiment: ITC binary interaction with CHCHD4; assay type: binding; settings: for Kd / ΔG / ΔH / -TΔS: 25°C, pH 7.4
T1 construct: His6 (N); made in house; host or cells: E. coli C41 (DE3)
T1 sequence (Q8N4Q1 1-142): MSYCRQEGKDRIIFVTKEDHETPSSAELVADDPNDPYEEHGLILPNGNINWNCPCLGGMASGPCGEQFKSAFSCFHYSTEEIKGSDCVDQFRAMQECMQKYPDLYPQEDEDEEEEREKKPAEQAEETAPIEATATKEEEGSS
Description: (§1) ITC assays were carried out using an Auto-iTC200 (MicroCal, Malvern-Panalytical, Malvern, UK) thermostated at 25 °C. Typically, […] protein partner and dsDNA samples—prepared as described below—were used to titrate ~10 μM hAIF∆1-101 variants. All solutions were degassed at 15°C for 1 min before each assay. A sequence of 2 μL injections of titrant solution every 150 s was programmed, and the stirring speed was set to 750 rpm. The association constant (Ka), the enthalpy of binding (ΔH), and the binding stoichiometry (N) were estimated through nonlinear least-squares regression of the experimental data employing a single-ligand binding site model implemented in Origin 7.0 (OriginLab, Northampton, MA). The dissociation constant (Kd), the free energy change (ΔG), and the entropy change (ΔS) were obtained from basic thermodynamic relationships.

[4] = biological target: dsDNA; experiment: ITC binary interaction with dsDNA; assay type: binding; settings: for Kd for DNA higher than WT: hAIFΔ1−101ox, binary complexes; for Kd: oxidized hAIF∆1-101 titrated with 15-bp dsDNA, 25°C, pH 7.4
Description: as §1
Since hAIF binds DNA unspecifically, a 0.5 mM dsDNA sample was prepared from 1 mM solutions of HPLC-purified forward and a reverse complementary 15-bp oligonucleotides (5′- GGT TAG TTA TGC GCG -3′; randomly designed) synthetized by Integrated DNA Technologies. The pair of oligonucleotides was mixed at an equimolar ratio and annealed by heating 1 min at 99°C and performing a 3 h temperature scanning from 95 to 25°C, decreasing 1°C each 3 min. 0.5 mM dsDNA stock solutions were obtained.

[5] = biological target: T2, CypA (Homo sapiens, UniProt P62937); experiment: ITC binary interaction with CypA; assay type: binding; settings: oxidized hAIF∆1-101 titrated with CypA, 25°C, pH 7.4
T2 construct: His6 (N); made in house; host or cells: E. coli C41 (DE3)
T2 sequence (P62937 whole entry): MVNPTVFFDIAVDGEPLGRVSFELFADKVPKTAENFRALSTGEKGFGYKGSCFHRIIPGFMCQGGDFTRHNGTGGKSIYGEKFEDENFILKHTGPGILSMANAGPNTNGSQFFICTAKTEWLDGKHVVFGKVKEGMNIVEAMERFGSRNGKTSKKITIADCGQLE
Description: as §1

[6] = Stopped-flow CTC formation on mixing photoreduced hAIF∆1-101 with NAD+; assay type: biochemical; settings: for k CTC: hAIF∆1-101phrd variants mixed with NAD+; for k CTC / k CTC/Kd^NAD+ / Kd: anaerobic, 25°C, pH 7.4; for k CTC/Kd^NAD+: hAIF∆1-101phrd variants; for Kd: transient hAIF∆1-101phrd:NAD+ complex, read-out: K d ^NAD+
Description: Stopped-flow spectrophotometry was also used to evaluate the rate constants of CTC formation when mixing photoreduced hAIF∆1-101 (hAIF∆1-101phrd) with increasing concentrations of NAD^+ (0.125-5 mM) under anaerobic conditions. hAIF∆1-101phrd samples were obtained by photoreduction in the presence of 5 μM methyl viologen, 3 μM 5-deazariboflavin, and 20 mM EDTA. The assays were performed at 25 °C in 50 mM potassium phosphate, pH 7.4, under anaerobic conditions (obtained by several cycles of vacuum application and bubbling with O2 free argon). Data were global fitted to a single step model (A→B), and kobs were determined at the different NAD^+ concentrations assayed. These values were then fitted to the equation that describes the formation of a transient hAIF∆1-101phrd:NAD^+ complex prior to the CTC stabilization: (4) kobs=kCTCNAD^+/KdNAD++NAD^+, in which kCTC is the limiting rate constant for the rearrangement of the encounter complex to form the CTC, and Kd^NAD+ is the dissociation constant for the mentioned transient encounter complex.

[7] = for T m CTC ^FAD − Tm^FAD: CTC state relative to oxidized state of the same variant; for ΔTm^FAD: variant relative to WT; for T m ^FAD: ~2 μM protein, 50 mM potassium phosphate; for ΔTm CTC^FAD: CTC state, variant relative to WT CTC
Description: Thermal denaturation curves were followed by changes in the FAD fluorescence emission upon its release from the protein by sample excitation at 450 nm. Curves were monitored from 10 °C to 90 °C with scan rates of 1°C/min, both in the absence and presence of a 100-fold excess of NADH. The curves for each variant were roughly normalized to values between 0 and 1 and globally fitted to a two-step process describing a single transition unfolding equilibrium (native (N)↔unfolded (U)) by using the following equation [23]: (1) Sobs=SN+mNT+SU+mUTe^−ΔG/RT/1+e^−ΔG/RT, in which Sobs is the measured protein signal at a given temperature (T). SN and SU are intercept at 0 K with the y-axis of the linear extrapolation for the native and unfolded pre- and posttransition regions, respectively, while mN and mU are the corresponding slopes. The stabilization Gibbs energy depends on temperature according to ΔG = ΔH(1 − 1/Tm) + ΔCP(T − Tm − Tln(T/Tm)), where ΔH is the unfolding enthalpy, Tm is the midtransition temperature, ΔCP is the unfolding heat capacity change, and R is the ideal gas constant.

[8] = Reactivity of the CTC towards molecular oxygen (CTC half-life); assay type: biochemical; settings: 25°C, air saturated 50 mM potassium phosphate, pH 7.4
Description: The reactivity of the CTC towards molecular oxygen was monitored by full reduction of hAIF∆1-101 samples with NADH (1.5-fold the concentration of the protein) in 50 mM phosphate buffer, pH 7.4, and following their reoxidation in a Cary 100 spectrophotometer (Agilent, Santa Clara, CA). Absorption spectra were recorded at 25 °C until full oxidation of the flavin cofactor was achieved. For each time, the percent remaining of CTC versus reoxidation by molecular oxygen was estimated as ΔAt/ΔAmax, where ΔAmax is the difference between the minimum and the maximum absorbance at 700 nm, and ΔAt is the difference of each value at 700nm minus the minimum absorbance at 700 nm. The CTC half-life is the time at which 50% of CTC still remains.

[9] = steady-state DCPIP diaphorase reaction
[10] = CTC form (premixed with NADH 1:100) titrated with CHCHD4, ITC, read-out: K d
[11] = CTC form titrated with CHCHD4, ITC
[12] = oxidized hAIF∆1-101 titrated with CHCHD4, ITC
[13] = CTC hAIF∆1-101rd:NAD^+, 100-fold excess NADH
[14] = CTC hAIF∆1-101rd:NAD^+, 100-fold excess NADH, pH 7.4, ionic strength 150 mM
[15] = hAIF∆1-101ox, pH 7.4, ionic strength 150 mM

k HT/Kd^NADH [2] [M⁻¹ s⁻¹] | Kd [2] [µM] | Kd [3, 10] [µM] | ΔG [3, 11] [kcal/mol] | ΔH [3, 11] [kcal/mol] | Kd [4] [µM] | -TΔS [5] [kcal/mol] | k CTC/Kd^NAD+ [6] [M⁻¹ s⁻¹] | Kd [6] [µM] | Substance | increase in turnover rate relative to WT [1, 9] | K m ^NADH [1] [µM] | k cat [1] [s⁻¹] | k HT [2] [s⁻¹] | k CTC [6] [s⁻¹] | ΔH (unfolding enthalpy) [7, 13] [kcal/mol] | T m CTC ^FAD [7, 14] [K] | T m CTC ^FAD − Tm^FAD [7] [K] | ΔH (unfolding enthalpy) [7, 15] [kcal/mol] | T m ^FAD [7, 15] [K] | CTC half-life versus reoxidation by O2 [8] [min] | other results
117000 ± 5300 | 1070 ± 40 | 0.5 | -8.3 | -5.9 | 5.8 | -34.9 | 76000 ± 10000 | 394 ± 50 | W196A: W196A site-directed mutant of hAIF∆1-101; ox = oxidized, CTC = charge transfer complex with NAD+ | ~ 5 fold | 25 ± 4 | 4.3 ± 0.2 | 126 ± 1 | 30 ± 1 | 170 ± 4 | 326 ± 1 | 0 | 103 ± 3 | 326 ± 1 | 62 | higher affinity for the NADH substrate relative to WT ([2]; stopped-flow, NADH): ~ 5 fold; Kd ([3]; oxidized hAIF∆1-101 titrated with CHCHD4, ITC, 50 mM potassium phosphate, listed as W196Aox, read-out: K d): ~0.4 µM and 0.4 µM; -TΔS [3, 12]: -18.0 kcal/mol; ΔG [3, 12]: -8.4 kcal/mol; ΔH [3, 12]: 9.6 kcal/mol; Kd for DNA higher than WT [4]: ~ 4 fold; ΔG [5]: -7.6 kcal/mol; ΔH [5]: 27.3 kcal/mol; decrease in Kd^NAD+ relative to WT ([6]; hAIF∆1-101phrd with NAD+): ~ 5 fold; ΔTm^FAD ([7]; hAIF∆1-101ox): −11 ± 2 K
21000 ± 3000 | 1720 ± 210 |  |  |  |  |  | 67000 ± 18000 | 433 ± 11 | W196L: W196L site-directed mutant of hAIF∆1-101 | ~ 3 fold | 187 ± 18 | 2.8 ± 0.1 | 36 ± 1 | 29 ± 2 | 159 ± 4 | 324 ± 1 | −2 ± 2 | 118 ± 3 | 326 ± 1 | 32 | decrease in Km^NADH relative to WT [1, 9]: ~ 3 fold; efficiency oxidizing NADH relative to WT [1, 9]: ~ 8 times; decrease in Kd^NAD+ relative to WT ([6]; hAIF∆1-101phrd with NAD+): ~ 5 fold; ΔTm CTC^FAD [7]: 0 K; ΔTm^FAD ([7]; hAIF∆1-101ox): −11 ± 2 K
4000 ± 800 | 2870 ± 320 | 2.1 | -7.5 | -8.2 | 6.9 | -24.9 | 87000 ± 14000 | 183 ± 27 | W196Y: W196Y site-directed mutant of hAIF∆1-101; ox = oxidized, CTC = charge transfer complex with NAD+ | ~ 3 fold | 505 ± 35 | 2.7 ± 0.1 | 12 ± 1 | 16 ± 1 | 167 ± 4 | 323 ± 1 | −6 ± 2 | 123 ± 3 | 329 ± 1 | 42 | efficiency oxidizing NADH relative to WT [1, 9]: ~ 3 times; efficiency as hydride acceptor from NADH relative to WT ([2]; stopped-flow, NADH): ~ 12 fold; -TΔS [3, 11]: 0.7 kcal/mol; Kd for CHCHD4 higher relative to WT CTC ([3]; CTC form, ITC): ~ 10 fold; Kd ([3]; oxidized hAIF∆1-101 titrated with CHCHD4, ITC, 50 mM potassium phosphate, listed as W196Yox): heat exchange was not observed; also recorded: No detected binding; Kd for DNA higher than WT [4]: ~ 4 fold; ΔG [5]: -7.9 kcal/mol; ΔH [5]: 17.0 kcal/mol; decrease in Kd^NAD+ relative to WT ([6]; hAIF∆1-101phrd with NAD+): ~ 11 fold; decrease in kCTC relative to WT ([6]; hAIF∆1-101phrd with NAD+): less than 3 fold; ΔTm CTC^FAD [7]: −1 ± 2 K; ΔTm^FAD ([7]; hAIF∆1-101ox): −8 ± 2 K
400 ± 100 | 4090 ± 300 | 0.2 | -8.7 | -20.1 | 1.6 | 17.2 | 22000 ± 3000 | 2080 ± 250 | WT: wild-type human apoptosis-inducing factor, soluble form hAIF∆1-101 (UniProtKB O95831); ox = oxidized, CTC = NADH-reduced charge transfer complex |  | 495 ± 170 | 0.9 ± 0.1 | 1.5 ± 0.1 | 45 ± 2 | 150 ± 4 | 324 ± 1 | −13 ± 2 | 128 ± 3 | 337 ± 1 | 72 | -TΔS [3, 11]: 11.4 kcal/mol; Kd ([3]; oxidized hAIF∆1-101 titrated with CHCHD4, ITC, 50 mM potassium phosphate, listed as WTox): heat exchange was not observed; also recorded: No detected binding; ΔG [5]: -7.3 kcal/mol; ΔH [5]: -24.5 kcal/mol
